Measured values taken from article PMC2891831, “Insight into the Mechanisms of Adenovirus Capsid Disassembly from Studies of Defensin Neutralization” (PLoS Pathogens, 2010).

Experiments:
HAdV species B1 = experiment: Infection assay (hexon staining), HAdV species B1; format: cell-based, human adenovirus; conditions: 15 µM HD5, A549 cells, hexon staining at ~48 h, vs. no defensin
Method: (§1) To determine whether sensitivity to α-defensins is a general property of HAdVs, serotypes representative of HAdV species A–F were tested for infectivity in the presence of 15 µM HD5 or HNP1 (Figure 1). Wild type HAdVs rather than vectors were used for these studies, and infectivity was assessed by staining for hexon production. […] These studies indicate that sensitivity to α-defensins is species specific. In addition, particular HAdV serotypes are not equally sensitive to all defensins, indicating defensin sequence specificity as well.
(§2) Figure 1 Sensitivity to neutralization by alpha-defensins is AdV species specific. HAdVs were incubated with 15 µM HD5 (A) or HNP1 (B) and assessed for infectivity on A549 cells. Data are the mean of the percent infectivity compared to control cells infected with each virus in the absence of defensin for at least three independent experiments ± SD. The upper limit for quantification of this assay is 200%. […]
(§3) Prior to use in this assay, each virus stock was titrated on A549 cells. […] In parallel, wells were infected with two-fold serial dilutions of each virus to establish a standard curve for quantification with an upper limit of 200%. […] Total well fluorescence above background was quantified with ImageJ software. For each virus, samples were quantified by nonlinear regression against the standard curve using Prism software (GraphPad Software, Inc., La Jolla, CA).

HAdV-4 (species E) = experiment: Infection assay (hexon staining), HAdV-4; format: cell-based, human adenovirus; conditions: 15 µM HD5 or HNP1, A549 cells, hexon staining at ~48 h, vs. no defensin
Method: as §1, §2, §3

HAdV-7p = experiment: Virus-defensin binding assay, HAdV-7p; set-up: species or system human adenovirus; conditions: 20 µM HD5, mean of two or three independent experiments ± SD
Excerpt: Figure 2 HD5 binding to HAdV. A) HD5 binding to a representative defensin-sensitive serotype (HAdV-5) was quantified by an equilibrium-binding assay. Data are the mean of the number of HD5 molecules bound per virion at the indicated HD5 concentrations from at least three independent experiments ± SD. Binding curves were fitted using Prism software. B) Binding of HD5 to additional defensin-sensitive (HAdV-7p) and resistant (HAdV-19c, -25p, -51p) serotypes expressed as a percent of HD5 bound to HAdV-5. Data are the mean of two or three independent experiments ± SD.
We assessed HD5 binding to additional serotypes after incubation with 20 µM HD5 (Figure 2B). The sensitive serotype HAdV-7p bound 69.3±15.9% of the amount of HD5 bound to HAdV-5 in parallel samples; whereas, the corresponding values for the resistant serotypes HAdV-19c, -25p, and -51p were 32.5±7.5%, 3.3±5.8%, and 24.6±12.0%, respectively.
To measure HD5 binding to HAdV-5 and -51, HD5 was serially diluted in PBS and mixed with 5 µg purified virus. […] The other half of each sample was used to make a standard curve for quantification. […] Virus bands were quantified using ImageQuant NT software (GE Healthcare). […] The amount of HD5 in the centrifuged samples was then quantified against the standard curve using Prism software. […]

Ad5.eGFP = Ad5.eGFP infection, eGFP-positive cells by flow cytometry; format: cell-based, human adenovirus; conditions: 15 µM defensin, percent eGFP positive cells vs. no defensin, at least three independent experiments
Excerpt: To gain further insight into the defensin-HAdV interaction, we assessed the requirement for two conserved structural elements on the anti-AdV activity of HD5. All defensins have three disulfide bonds (Figure 3A). […] The antibacterial properties of defensins, which are dependent upon protein-lipid interactions, are not uniformly conformation dependent [27]–[29]. […] In contrast, defensin-related chemokine activity, which relies on protein-protein interactions, is dependent on defensin conformation. We hypothesized that the defensin-capsid interaction for sensitive serotypes would likely be dependent upon defensin conformation, as this would be more typical for protein-protein interactions. […]
Figure 3 HD5 antiviral activity is structure dependent. […] C) Binding of Alexa Fluor 488-labeled HAdV-5 to cells was assessed after incubation with or without 20 µM HD5 or HD5-Abu and in competition with 100 nM 5FK or 16 FK. Data are the mean fold increase in geometric mean fluorescence compared to cells alone and are of at least 10,000 cells from each of three independent experiments ± SD.
To test the activity of HD5 derivates, Ad5.eGFP was incubated with 15 µM of HD5, HD5-Abu, or HD5-E14Q. Infectivity was assessed by enumerating eGFP-positive cells by flow cytometry as described.

B1: HD5: human alpha-defensin; synthetic, obtained from Peptides International; three disulfide bonds (PDB 1ZMP) (peptide, UniProt Q01523 20-94, looked up)
Defensin alpha 5: ESLQERADEATTQKQSGEDNQDLAISFAGNGLSALRTSGSQARATCYCRTGRCATRESLSGVCEISGRLYRLCCR
modifications: Defensin-5
- sensitivity to neutralization (infectivity) (HAdV species B1): sensitive
- sensitivity to neutralization (infectivity) (HAdV-4 (species E)): moderately sensitive
- HD5 bound, percent of HD5 bound to HAdV-5 (HAdV-7p): 69.3±15.9%
- antiviral activity against Ad5.eGFP (Ad5.eGFP): only correctly folded HD5 has antiviral activity
